# Measurements taken from patent US6509445 (NISSIN FOOD PRODUCTS, dated 2003).
# B1: chimeric protein ATFHI-ML (other)
# chain: MSNELHQVPSNCDCLNGGTCVSNKYFSNIHWCNCPKKFGGQHCEIDKSKTCYEGNGHFYRGKASTDTMGRPCLPWNSATVLQQTYHAHRSDALQLGLGKHNYCRNPDNRRRPWCYVQVGLKPLVQECMVHDCADGKKPSSPPEELKFQGTVAACNLPIVRGPCRAFIQLWAFDAVKGKCVLFPYGGCQGNGNKFYSEKECREYCGVPG
# B2: chimeric protein ATFHI (other)
# chain: MSNELHQVPSNCDCLNGGTCVSNKYFSNIHWCNCPKKFGGQHCEIDKSKTCYEGNGHFYRGKASTDTMGRPCLPWNSATVLQQTYHAHRSDALQLGLGKHNYCRNPDNRRRPWCYVQVGLKPLVQECMVHDCADGTVAACNLPIVRGPCRAFIQLWAFDAVKGKCVLFPYGGCQGNGNKFYSEKECREYCGVPG
# B3: chimeric protein ATFHI-CL (other)
# chain: MSNELHQVPSNCDCLNGGTCVSNKYFSNIHWCNCPKKFGGQHCEIDKSKTCYEGNGHFYRGKASTDTMGRPCLPWNSATVLQQTYHAHRSDALQLGLGKHNYCRNPDNRRRPWCYVQVGLKPLVQECMVHDCADGTVAACNLPIVRGPCRAFIQLWAFDAVKGKCVLFPYGGCQGNGNKFYSEKECREYCGVPGDGDEELL
# Target: urokinase receptor (uPAR) (human, UniProt Q03405 23-305)
# Sequence (Q03405 23-305): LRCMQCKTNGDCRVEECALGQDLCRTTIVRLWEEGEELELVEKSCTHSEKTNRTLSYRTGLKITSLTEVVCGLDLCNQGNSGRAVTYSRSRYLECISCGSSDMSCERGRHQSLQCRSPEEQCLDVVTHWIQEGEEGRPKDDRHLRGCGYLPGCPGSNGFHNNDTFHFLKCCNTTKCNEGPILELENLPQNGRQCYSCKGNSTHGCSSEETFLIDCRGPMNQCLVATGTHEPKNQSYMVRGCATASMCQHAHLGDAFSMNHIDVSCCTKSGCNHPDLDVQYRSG
# Assay: cell-based or functional assay
Binder,"Invasion inhibitory effect ID50 (nM), A375 cells [nM]","Invasion inhibitory effect ID50 (nM), DU-145 cells [nM]","Invasion inhibitory effect ID50 (nM), GE0 cells [nM]","Invasion inhibitory effect ID50 (nM), H0C-I cells [nM]","Invasion inhibitory effect ID50 (nM), MDA-MB-435 cells [nM]","Invasion inhibitory effect ID50 (nM), PC-3 cells [nM]","Invasion inhibitory effect ID50 (nM), SMT-ccl cells [nM]"
B1,120,2.9,20,50,5.6,50,10
B2,50,0.5,110,10,3.5,20,1.2
B3,100,5,200,20,20,20,1
